Reference: the nanobody polyreactivity screen of Harvey et al. (2022)

Assay: yeast display, Sf9 membrane polyspecificity reagent, FACS + sequencing; frameworks hold sequencing errors
Summary of the method: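 A nanobody's polyreactivity label depends on the gate it was sorted from. Yeast display cells were stained with 10% biotinylated, detergent-solubilized Sf9 membrane reagent for 1 hour at 4 °C, enriched on streptavidin microbeads and sorted by FACS. The low and high (top ~1%) gates were set on anti-HA fluorescence for expression and streptavidin fluorescence for reagent binding.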
In the case of “QVQLVESGGGLVQAGGSLRLSCAASGSTFGTYAMGWYRQAPGKERELVAAITRSGGSTYYADSVKGRFTISRDNAKNTVYLQKNSLKPEDTAVYYCAKYVFSYPQSYAYYYWGHGTQVTVSS”, the “polyreactivity (PSR sort gate)” value is reported as “high polyreactivity”.
With “QVQLVESGGGLVQAGGSLRLSCAASGRISGYNMGWYRQAPGKERELVAAISNGGSTNYADSVKGRFTISRDNAKNTVYLQMNSLKPEDTAVYYCNRRVPYSFYSRGYYYWGQGTQVTVSS” the “polyreactivity (PSR sort gate)” value was “high polyreactivity”.
In the case of “QGQLVESGGGLVQAGGSLRLSCAASGFIFVVYAMGWYRQAPGKERELVAAITFSGGSTYYADSVKGRFTISRDNAKNTVYLQMISLKPEVTAVYYCAAAEHDREFDSWGHGTQVTVSS”, the “polyreactivity (PSR sort gate)” value is reported as “low polyreactivity”.
With “QVQLVESGGGLVQAGGSLRLSCASSGLIFSIYAMGWYRQAPGKERELVAAIRWSGGSTYYADSVKGRFTISRDNAKNTVYLQMNSLKPEDTAVYYCNADITVYVRIYQYNYCGQGTQVTVSS” the “polyreactivity (PSR sort gate)” value was “low polyreactivity”.
In the case of “QVQLVESGGGLVQAGGSLRLSCAASGSIFYQNAMGWYRQAPGKEREFVAAIRSSGSSTYYADSVKGRFTISRDNAKNTVYVQMNCLKPEDTAVYYCAADNPGGYRGKVDYWGQGTQVTVSS”, the “polyreactivity (PSR sort gate)” value is reported as “high polyreactivity”.
In the case of “QVKRVESGGGLVHAGGSLRLSCPASGRTVAKYAMGGYRQEPGKARELVAAITSSGGITYYAESVQGRYTISRDNAKNIVYLQMNSLKREDTAFYYCAVKTFQVGTFRRYYYWGQGTQVTVSS”, the “polyreactivity (PSR sort gate)” value is reported as “high polyreactivity”.
For “QVQLVESGGGLVQAGGSLRLSCAASGFTFRGNAMGWYRQAPGKERELVAAITSSGGRTYYADSVKGRFTISRDNAKNTVYLQMNSLKPVDTAVYYCAARYAYPSRYYYWGQGTQGTVSS”, the “polyreactivity (PSR sort gate)” value was “high polyreactivity”.
In the case of “QVQLVESGGGLVQAGGSLRLSCAASGIFRYYAMGWYRQAPGKERELVATITRSSGSTYYADSVKGRFTISRDNAKNTVYLQMNSLKPEDTAVYYCAARGPYFNRGTRYDYWGQGTQVTVSS”, the “polyreactivity (PSR sort gate)” value is reported as “high polyreactivity”.
For “QVQLVESGGGLDQAGGSLRLICAASGTTFSPYAMGWYRQAPGKQRELGANITISGGSTFYADSVKGRFTISRDYAKNTDYLQMKSLKPEDTAVDYCNADSLIRWLFTVVIFDYCGQGTQVTVSS”, the “polyreactivity (PSR sort gate)” value was “low polyreactivity”.
With “QVQLVESGGGLVQAGGSLRESCAASGRIFYGNAMGCYRQAPVKERELVAAISSGTSTNYADSVKGRFTISRDNAKNTVYLEMNSLKPEDTGVYYCAAGSYSRYLYSLYFDFDYWGQGTQVTVSS” the “polyreactivity (PSR sort gate)” value was “low polyreactivity”.
In the case of “QVQLVESGGGLVQAGGRLRLSCAPSGSTFSTYAMGSYRQAPGNERELVAVITWRGGSTYYADSVKGRFTISRDNAKNTVYLQMNSLKPEDTAVYYCAAEGESPEYDYWGQGTQVTVSS”, the “polyreactivity (PSR sort gate)” value is reported as “low polyreactivity”.
With “QVQLVESGGGLVQAGGSLRLSCAASGRTFYRNAMGWYRQAPGKERELVAAISNGGSTNYADSVKGRFTISRDNAKNTVYLQMNSLKPEDTAVYYCAKAVIRWRGSGQHGYFWYDYLGQGTQVTVSS” the “polyreactivity (PSR sort gate)” value was “high polyreactivity”.
With “QVQLVESGGGLVQAGGSLRLSCAASGSIFKINAMGWYRQAPGKERELVATITWSTGTSYYADSVKGRFTISRDNAKNTVYLQMNSLKPEDTAVYYCATDGDSTKLDYWGQGTQVTVSS” the “polyreactivity (PSR sort gate)” value was “low polyreactivity”.
For “HVQHVESGGGLVQAGGSLRLSCAASGRTFGYYALGWYRQAPGKERELVARISTRGGSTNYADSVKGRFTISRDNAKNTVFLQMNSLKPEDTAVYSCYARGGYGGGYDYWVQGTQVTVSS”, the “polyreactivity (PSR sort gate)” value was “high polyreactivity”.
In the case of “QVQLVESGGGLVQAGGSLRLSCAASGFIFYNYAMGWYRQAPGKERELVAAISKSGDSTYYADSVKGRFTISRDNAKNTVYLQMNSLKPEDTAVYYCNKEIVWHLWYESWGQGTQVTVSS”, the “polyreactivity (PSR sort gate)” value is reported as “high polyreactivity”.
For “QVQLVESGGGLVQAGGSLRLSCAASGSIFTGNAMGWYRQAPGKERELVASSTTTTDSTYYADSVKGRFTISRDNAKNTVYLQMNSLKPEDTAVYYCAAEYAVAWKYGLYFYFHFDYWGQGTQVTVSS”, the “polyreactivity (PSR sort gate)” value was “low polyreactivity”.
In the case of “QVQLVESGGGLVQAGGSLRLSCAASGGTFKANAMGWYRQAPGKERELVAAIRQTGGSTYYADSVKGRFTISRDNAKNTVYLQMNSLKPEDTAVYYCAAQSHRYCIYDYWGQGTQVTVSS”, the “polyreactivity (PSR sort gate)” value is reported as “high polyreactivity”.
For “QVQLVESGGGLVQAGGSLRLSCAASGLIFYNYAMGWYRQAPGKERELVAAISSGGSTYYADSVKGRFTISRDNAKNTVYLQMNSLKPEDTAVYYCAASGPGYSRYTQYDSWGQGTQVTVSS”, the “polyreactivity (PSR sort gate)” value was “high polyreactivity”.
For “PDQLVESGGGLVQAGGSLRLSCAASGLNFYDNMGWYIQATGKERELVSAISSSGGSTSYADSVKGRFTISRDNAKNTVYLQMNSLKPEDTAVYYCAADSSPAYLGFVGFDYWGHGTQVTVSS”, the “polyreactivity (PSR sort gate)” value was “low polyreactivity”.
With “QVQLVESGGGLVQAGGSLRLSCAASGSIFWPNTMGWYRQAPGKERELVATISSGGDTSYADSVKGRFTISRDNAKNTVYLQMNSLKPEDTAVYYCAKRITVDDVHPRAQTYNYWGQGTQVTVSS” the “polyreactivity (PSR sort gate)” value was “low polyreactivity”.
In the case of “QVQLVESGGGLVQAGGSLRLSCAASGRIFAYYAMGWYRQAPGKERELVATINYSGTSTYYADSVKGRFTISRDNAKNTVYLQMNSLKPEDTAVYYCAARYGYAVYYYGTPVRRYYYWGQGTQVTVSS”, the “polyreactivity (PSR sort gate)” value is reported as “high polyreactivity”.
In the case of “QVQLVESGGGLVQAGGSLRLSCAASGRTLDLYAMGWYRQAPGKERELVAAISWRGGRTYYADSVKGRFTISRDNAQTTVYLQMNSLKPEDTAVYYCKADYPWSVVGYDYWGQGTQVSVSS”, the “polyreactivity (PSR sort gate)” value is reported as “low polyreactivity”.
In the case of “QVQLVESGGGLVQAGGSLRLSCAASGRIFDGYDMGWYRQAPGKERELVAAITSVGSTNYADSVKGRFTISRDNAKNTVYLQMNSLKPEDSAVYYCAAVLYVFYDEYGYWEYFSQYDYWGQGTQVTVSS”, the “polyreactivity (PSR sort gate)” value is reported as “low polyreactivity”.
With “QVQVVESGGGLVQAGGSLRLSCAASGRIFNRNAMGWYRQAPGKERELVAAITRGGRTNYADSVKGRFRISRDNAQNTVYLQMNSLKPEDTAVYYCAAAYYGSHGRYDYWGQGTQVTVSS” the “polyreactivity (PSR sort gate)” value was “high polyreactivity”.
With “QVQLGESGGGLVQAGGSLRLSCDASGTSNPYNAMGWYRQAPGKERELVATISTNDGSTYYADSVKGRFTISRDNEKNTVYLQMNSLKPDDTAVYYCASRGFARYWGQRTQVTVSS” the “polyreactivity (PSR sort gate)” value was “low polyreactivity”.
In the case of “QVQLVESGGGLVQAGGSLRLSCAASGSIFSYYAMGWYRQAPGKERELVAAISQNGGSTYYADSVKGRFTISRDNAKNTVYLQMNSLKPEDTAVYYCNAYSVYVRGEYWGQGTQVTVSS”, the “polyreactivity (PSR sort gate)” value is reported as “high polyreactivity”.
For “QVQLVESGGGLVQAGGSLRLSCAASGGTFSFNAMGWSRQAPGKERELVATISWDGGSTYYADSVKGRFTISRDNAKNTVYLQMYSLKPEDTAVYYCNKYVFDRYIYETEYDYWGQGTQVTVSS”, the “polyreactivity (PSR sort gate)” value was “high polyreactivity”.
In the case of “QVQLVESGGGLVQAGGSLRLSCAASGRTFPYYAMGWYRQAPGKERELVATITYSGGSTYYADSVKGRFTISRDNAKNTVYLQMNSLKPEDTAVYYCAADTGEYSAQYDYWGQGTQVTVSS”, the “polyreactivity (PSR sort gate)” value is reported as “high polyreactivity”.
With “QVQLVESGGGLVQAGGSLRLSCAASGRIFVNNAMGWYRQAPGKERELVATITSGGSTYYADSVKGRFTISRDNAKNTVYLQMNSLKPEDSAVYYCAARRWYVHYFAYGYWGQGTQVTVSS” the “polyreactivity (PSR sort gate)” value was “low polyreactivity”.
In the case of “QVQLVESGGGLVQAGGSLRLSCAASGSTFTKNAMGWYRQAPGKERELVADISFSGGSTYYADSVKGRFTISRDNAKNTVYLQTNRLKPEDTAVYDCAADRHRALPRFDDWGQGTQVTVAS”, the “polyreactivity (PSR sort gate)” value is reported as “low polyreactivity”.
For “QVQLVESGGCLVQAGGSLRLSCASSGNIFTIYTMGWYRQAPGKERELVASIYRGGTTYYADSVKGRFTISRDNAKNTVYLQMNSLKPEDTAVYYCAVYSPRLRRVHTRGYWGQGTQVTVSS”, the “polyreactivity (PSR sort gate)” value was “high polyreactivity”.
With “QVQLVESGGGLVQAGGSLRLSCAASGFNFGGYPMGWYRQAPGKERELVADISKRGGSTFYADSVKGRFTISRDNAKNTVYLQMNSLKPEDTAVYYCATRFFYPYWGVYEYYYWGQGTQVTVSS” the “polyreactivity (PSR sort gate)” value was “high polyreactivity”.
For “QVQLVESGGGLVQAGGSLRLSCAASGIFVSYAMGWYRQAPGKDRAVVAAISSSGGSTYYADSVKGRFTISRDNAKNTVYLQMNSLKPEDTAVYYGAARLVKSQTTVQGYYWGQGTQVTVSS”, the “polyreactivity (PSR sort gate)” value was “high polyreactivity”.
For “QVQLVESGGGLVQAGGSLRLSCAASGRTFSLNAMGWYRQAPGKERELVAAINRGGTTYYADSVKGRFTISRDNAKNTVYVQMNSLKPEDTAVYYCAARYISSYDWGQGTQVTVSS”, the “polyreactivity (PSR sort gate)” value was “high polyreactivity”.
With “QVQHVESGGGLVQAGGSLRLSCAASGRIFVYYALGWYRQAPGKERELVASISYSGASTYYADSVKGRFTISRDNAKNTVYLQMNSLKPEDTAVYYCNTDGDDFFHVIYDYWGQGTQVTVSS” the “polyreactivity (PSR sort gate)” value was “low polyreactivity”.
With “QVQLVESGGGLVQAGGSLRLSCAASGGTIFAYAMGWYIQAPRERELVPAISWSGDSTYYADSLKGRFTISRDNAKNTVYLQMNSLKPEETAVYYCAADYGFEFYYWGQGTQVTVAS” the “polyreactivity (PSR sort gate)” value was “high polyreactivity”.
For “QVQLVESGGGLVQAGGSLRLSCAASGSIFRGYAMGWYRQAPGKERDLVAAITSGGSTNYADSVKGRFTISRDNAKNSVYLQMNSLKPEDTAVYYCAKDLALVAPLSDYWGQGTQVTVSS”, the “polyreactivity (PSR sort gate)” value was “low polyreactivity”.
In the case of “QVQLVESGGGLVQAGGSLRLSCSASGRIFVDNALGWYRQAPGKERELVATITSTGSTNYADSEKGRFTISRDNGMNTFYLQMNSLKPEDTAFYYCNADGIMQDYDYWGQVTQVTVSS”, the “polyreactivity (PSR sort gate)” value is reported as “low polyreactivity”.
In the case of “QVQLVESAGGLVQAGGSLRLSCAASGFTFREYAMGWYRQAPGKERELVADIDWSGGSTYYADSVKGRFTISRDNAKNTFYLQMNSLKPEDTAVYYCAKAYYPGVYWGQGTQVTVSS”, the “polyreactivity (PSR sort gate)” value is reported as “high polyreactivity”.
In the case of “QVQLVETGGVLDQAGGSLRLSCAASGRIFWANAMGWYRQAPGKERELVAAISYSGVSTYYADSVKGRFTSSRDNAKNTVYLQMNSLKPEDTAVYYCAADRYRKYYYWGQGTQVTVSS”, the “polyreactivity (PSR sort gate)” value is reported as “high polyreactivity”.
In the case of “QVQLVESGGGLVQAGGSLRLSCAASGTTFYPNAMGWYRQAPGKERELVAAISWSGGRTYYADSVKGRFTISRDNAKNTVYLQMNSLKPEDTAVYYCNRYHRTSWRAKYDYWGQGTQVTVSS”, the “polyreactivity (PSR sort gate)” value is reported as “high polyreactivity”.
In the case of “QVQLVESGGGLVQAGGSLRLSCAASGIIFRGNAMGWYRQAPGKERELVAAMSKSGGRTYYADSVKGRFTISRDNAKNTVYLQMNSLKPEDTAVYYCAARRSTSYPAGNDYWGQGTQVTVSS”, the “polyreactivity (PSR sort gate)” value is reported as “high polyreactivity”.
In the case of “QVQLVESGGGLVQAGGSLRLSCAASGSTFRYYTMGWYRQAPGKERELVARISWSGGSTYYADSVKGRFTISRDNAKNTVYLQMNSLKPEDTAVYYCNAVLFYFQTRDYWGQGTQVTVSS”, the “polyreactivity (PSR sort gate)” value is reported as “high polyreactivity”.
